Our source for the hCT-R EC50 [nM] (cAMP formation, 1321N1 cells expressing hCT-R) and hAMYR3 EC50 [nM] (cAMP formation, 1321N1 cells expressing hAMYR3) values is patent US20180071366A1.

Assay [1] addresses recombinant human calcitonin receptor (hCT-R) (human), P30988. Put plainly: cell-based or functional assay.
In assay [2] the target is recombinant human amylin 3 receptor (hAMYR3) (human), P30988. Put plainly: cell-based or functional assay.

Numbered stars: 1 amine (or outer) side, 2 acyl side, 3 side chain; on linkers, the order of the positions; unused ones are H or OH. Bridge positions count the residues as written; N and C are the ends. Square brackets hold non-standard residues; d marks the D form. * marks the point of attachment. C20 diacid = O=C(O)CCCCCCCCCCCCCCCCCCC(=O)*; γGlu = O=C(O)[C@H](CCC(=O)[*:2])N[*:1]; Hyp = O=C(O)[C@@H]1C[C@@H](O)CN1; NMeI = CC[C@H](C)[C@H](NC)C(=O)O; Aad = N[C@@H](CCCC(=O)O)C(=O)O; Orn = NCCC[C@H](N)C(=O)O; Sar = CNCC(=O)O

Chain of recombinant human calcitonin receptor (hCT-R) (human), P30988 (P30988 25-474): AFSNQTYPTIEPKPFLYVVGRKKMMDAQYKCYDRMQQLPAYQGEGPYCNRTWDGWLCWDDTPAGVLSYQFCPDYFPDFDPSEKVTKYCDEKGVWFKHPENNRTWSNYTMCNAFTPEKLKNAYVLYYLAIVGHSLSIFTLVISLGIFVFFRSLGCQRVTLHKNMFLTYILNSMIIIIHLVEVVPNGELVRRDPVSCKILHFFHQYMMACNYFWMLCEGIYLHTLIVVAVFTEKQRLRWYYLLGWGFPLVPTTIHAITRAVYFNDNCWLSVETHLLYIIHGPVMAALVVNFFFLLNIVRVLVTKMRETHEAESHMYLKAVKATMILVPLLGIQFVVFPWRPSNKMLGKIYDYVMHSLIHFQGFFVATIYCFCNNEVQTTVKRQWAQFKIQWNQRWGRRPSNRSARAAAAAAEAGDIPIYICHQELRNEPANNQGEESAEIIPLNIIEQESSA
Chain of recombinant human amylin 3 receptor (hAMYR3) (human), P30988 (P30988 25-474, chain 1 of 2): as the sequence (P30988 25-474) above
Chain of recombinant human amylin 3 receptor (hAMYR3) (human), P30988 (O60896 24-148, chain 2 of 2, further chain): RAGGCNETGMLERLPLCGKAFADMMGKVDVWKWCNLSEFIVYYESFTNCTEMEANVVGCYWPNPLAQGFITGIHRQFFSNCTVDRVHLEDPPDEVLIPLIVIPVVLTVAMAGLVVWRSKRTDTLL

B1: Compound 36 (peptide)
peptide: {C20 diacid-γGlu}-RDGTATKATERLA[Aad]FLQRSSF[Sar]A[NMeI]LSSTETGSNT[Hyp]-NH2
modifications: lactam 2-7
SMILES: CC[C@H](C)[C@@H](C(=O)N[C@@H](CC(C)C)C(=O)N[C@@H](CO)C(=O)N[C@@H](CO)C(=O)N[C@H](C(=O)N[C@@H](CCC(=O)O)C(=O)N[C@H](C(=O)NCC(=O)N[C@@H](CO)C(=O)N[C@@H](CC(N)=O)C(=O)N[C@H](C(=O)N1C[C@H](O)C[C@H]1C(N)=O)[C@@H](C)O)[C@@H](C)O)[C@@H](C)O)N(C)C(=O)[C@H](C)NC(=O)CN(C)C(=O)[C@H](Cc1ccccc1)NC(=O)[C@H](CO)NC(=O)[C@H](CO)NC(=O)[C@H](CCCNC(=N)N)NC(=O)[C@H](CCC(N)=O)NC(=O)[C@H](CC(C)C)NC(=O)[C@H](Cc1ccccc1)NC(=O)[C@H](CCCC(=O)O)NC(=O)[C@H](C)NC(=O)[C@H](CC(C)C)NC(=O)[C@H](CCCNC(=N)N)NC(=O)[C@H](CCC(=O)O)NC(=O)[C@@H](NC(=O)[C@H](C)NC(=O)[C@@H]1CCCCNC(=O)C[C@H](NC(=O)[C@H](CCCNC(=N)N)NC(=O)CC[C@H](NC(=O)CCCCCCCCCCCCCCCCCCC(=O)O)C(=O)O)C(=O)NCC(=O)N[C@@H]([C@@H](C)O)C(=O)N[C@@H](C)C(=O)N[C@@H]([C@@H](C)O)C(=O)N1)[C@@H](C)O
In the case of B1, in assay [1], the hCT-R EC50 [nM] (cAMP formation, 1321N1 cells expressing hCT-R) turned out to be 0.026 nM. Also, in assay [2], the hAMYR3 EC50 [nM] (cAMP formation, 1321N1 cells expressing hAMYR3) stood at 0.007 nM.

B2: Compound 32 (peptide)
peptide: {C20 diacid-γGlu}-RDGTATKATERLA[Aad]FLQRGGF[Sar]A[NMeI]LSSTEVGSNT[Hyp]-NH2
modifications: lactam 2-7
SMILES: CC[C@H](C)[C@@H](C(=O)N[C@@H](CC(C)C)C(=O)N[C@@H](CO)C(=O)N[C@@H](CO)C(=O)N[C@H](C(=O)N[C@@H](CCC(=O)O)C(=O)N[C@H](C(=O)NCC(=O)N[C@@H](CO)C(=O)N[C@@H](CC(N)=O)C(=O)N[C@H](C(=O)N1C[C@H](O)C[C@H]1C(N)=O)[C@@H](C)O)C(C)C)[C@@H](C)O)N(C)C(=O)[C@H](C)NC(=O)CN(C)C(=O)[C@H](Cc1ccccc1)NC(=O)CNC(=O)CNC(=O)[C@H](CCCNC(=N)N)NC(=O)[C@H](CCC(N)=O)NC(=O)[C@H](CC(C)C)NC(=O)[C@H](Cc1ccccc1)NC(=O)[C@H](CCCC(=O)O)NC(=O)[C@H](C)NC(=O)[C@H](CC(C)C)NC(=O)[C@H](CCCNC(=N)N)NC(=O)[C@H](CCC(=O)O)NC(=O)[C@@H](NC(=O)[C@H](C)NC(=O)[C@@H]1CCCCNC(=O)C[C@H](NC(=O)[C@H](CCCNC(=N)N)NC(=O)CC[C@H](NC(=O)CCCCCCCCCCCCCCCCCCC(=O)O)C(=O)O)C(=O)NCC(=O)N[C@@H]([C@@H](C)O)C(=O)N[C@@H](C)C(=O)N[C@@H]([C@@H](C)O)C(=O)N1)[C@@H](C)O
With B2, the hCT-R EC50 [nM] (cAMP formation, 1321N1 cells expressing hCT-R) in assay [1] is 0.006 nM. In addition, the hAMYR3 EC50 [nM] (cAMP formation, 1321N1 cells expressing hAMYR3) in assay [2] worked out at 0.005 nM.

B3: Compound 4 (peptide)
peptide: {C20 diacid-γGlu-γGlu}-RDGTAT[Orn]ATERLAHFLQRSSF[Sar]A[NMeI]LSSTEVGSNT[Hyp]-NH2
modifications: lactam 2-7
SMILES: CC[C@H](C)[C@@H](C(=O)N[C@@H](CC(C)C)C(=O)N[C@@H](CO)C(=O)N[C@@H](CO)C(=O)N[C@H](C(=O)N[C@@H](CCC(=O)O)C(=O)N[C@H](C(=O)NCC(=O)N[C@@H](CO)C(=O)N[C@@H](CC(N)=O)C(=O)N[C@H](C(=O)N1C[C@H](O)C[C@H]1C(N)=O)[C@@H](C)O)C(C)C)[C@@H](C)O)N(C)C(=O)[C@H](C)NC(=O)CN(C)C(=O)[C@H](Cc1ccccc1)NC(=O)[C@H](CO)NC(=O)[C@H](CO)NC(=O)[C@H](CCCNC(=N)N)NC(=O)[C@H](CCC(N)=O)NC(=O)[C@H](CC(C)C)NC(=O)[C@H](Cc1ccccc1)NC(=O)[C@H](Cc1c[nH]cn1)NC(=O)[C@H](C)NC(=O)[C@H](CC(C)C)NC(=O)[C@H](CCCNC(=N)N)NC(=O)[C@H](CCC(=O)O)NC(=O)[C@@H](NC(=O)[C@H](C)NC(=O)[C@@H]1CCCNC(=O)C[C@H](NC(=O)[C@H](CCCNC(=N)N)NC(=O)CC[C@H](NC(=O)CC[C@H](NC(=O)CCCCCCCCCCCCCCCCCCC(=O)O)C(=O)O)C(=O)O)C(=O)NCC(=O)N[C@@H]([C@@H](C)O)C(=O)N[C@@H](C)C(=O)N[C@@H]([C@@H](C)O)C(=O)N1)[C@@H](C)O
As for B3, in assay [1], the hCT-R EC50 [nM] (cAMP formation, 1321N1 cells expressing hCT-R) turned out to be 0.16 nM. The hAMYR3 EC50 [nM] (cAMP formation, 1321N1 cells expressing hAMYR3) in assay [2] was found to be 0.092 nM.

B4: Compound 35 (peptide)
peptide: {C20 diacid-γGlu}-RDGTATKATERLA[Aad]FLQRSSF[Sar]A[NMeI]LSSTEVGSNT[Hyp]-NH2
modifications: lactam 2-7
As for B4, the hCT-R EC50 [nM] (cAMP formation, 1321N1 cells expressing hCT-R) in assay [1] came out at 0.066 nM. For the same molecule, the hAMYR3 EC50 [nM] (cAMP formation, 1321N1 cells expressing hAMYR3) in assay [2] was determined as 0.028 nM.

B5: Compound 31 (peptide)
peptide: {C20 diacid-γGlu}-RDGTATKATERLA[Aad]FLQRAAF[Sar]A[NMeI]LSSTEVGSNT[Hyp]-NH2
modifications: lactam 2-7
SMILES: CC[C@H](C)[C@@H](C(=O)N[C@@H](CC(C)C)C(=O)N[C@@H](CO)C(=O)N[C@@H](CO)C(=O)N[C@H](C(=O)N[C@@H](CCC(=O)O)C(=O)N[C@H](C(=O)NCC(=O)N[C@@H](CO)C(=O)N[C@@H](CC(N)=O)C(=O)N[C@H](C(=O)N1C[C@H](O)C[C@H]1C(N)=O)[C@@H](C)O)C(C)C)[C@@H](C)O)N(C)C(=O)[C@H](C)NC(=O)CN(C)C(=O)[C@H](Cc1ccccc1)NC(=O)[C@H](C)NC(=O)[C@H](C)NC(=O)[C@H](CCCNC(=N)N)NC(=O)[C@H](CCC(N)=O)NC(=O)[C@H](CC(C)C)NC(=O)[C@H](Cc1ccccc1)NC(=O)[C@H](CCCC(=O)O)NC(=O)[C@H](C)NC(=O)[C@H](CC(C)C)NC(=O)[C@H](CCCNC(=N)N)NC(=O)[C@H](CCC(=O)O)NC(=O)[C@@H](NC(=O)[C@H](C)NC(=O)[C@@H]1CCCCNC(=O)C[C@H](NC(=O)[C@H](CCCNC(=N)N)NC(=O)CC[C@H](NC(=O)CCCCCCCCCCCCCCCCCCC(=O)O)C(=O)O)C(=O)NCC(=O)N[C@@H]([C@@H](C)O)C(=O)N[C@@H](C)C(=O)N[C@@H]([C@@H](C)O)C(=O)N1)[C@@H](C)O
Take B5: in assay [1], the hCT-R EC50 [nM] (cAMP formation, 1321N1 cells expressing hCT-R) came out at 0.227 nM. The hAMYR3 EC50 [nM] (cAMP formation, 1321N1 cells expressing hAMYR3) in assay [2] turned out to be 0.066 nM.

B6: Compound 33 (peptide)
peptide: {C20 diacid-γGlu}-RDGTATKATERLA[Aad]FLQRANF[Sar]A[NMeI]LSSTEVGSNT[Hyp]-NH2
modifications: lactam 2-7
SMILES: CC[C@H](C)[C@@H](C(=O)N[C@@H](CC(C)C)C(=O)N[C@@H](CO)C(=O)N[C@@H](CO)C(=O)N[C@H](C(=O)N[C@@H](CCC(=O)O)C(=O)N[C@H](C(=O)NCC(=O)N[C@@H](CO)C(=O)N[C@@H](CC(N)=O)C(=O)N[C@H](C(=O)N1C[C@H](O)C[C@H]1C(N)=O)[C@@H](C)O)C(C)C)[C@@H](C)O)N(C)C(=O)[C@H](C)NC(=O)CN(C)C(=O)[C@H](Cc1ccccc1)NC(=O)[C@H](CC(N)=O)NC(=O)[C@H](C)NC(=O)[C@H](CCCNC(=N)N)NC(=O)[C@H](CCC(N)=O)NC(=O)[C@H](CC(C)C)NC(=O)[C@H](Cc1ccccc1)NC(=O)[C@H](CCCC(=O)O)NC(=O)[C@H](C)NC(=O)[C@H](CC(C)C)NC(=O)[C@H](CCCNC(=N)N)NC(=O)[C@H](CCC(=O)O)NC(=O)[C@@H](NC(=O)[C@H](C)NC(=O)[C@@H]1CCCCNC(=O)C[C@H](NC(=O)[C@H](CCCNC(=N)N)NC(=O)CC[C@H](NC(=O)CCCCCCCCCCCCCCCCCCC(=O)O)C(=O)O)C(=O)NCC(=O)N[C@@H]([C@@H](C)O)C(=O)N[C@@H](C)C(=O)N[C@@H]([C@@H](C)O)C(=O)N1)[C@@H](C)O
In the case of B6, in assay [1], the hCT-R EC50 [nM] (cAMP formation, 1321N1 cells expressing hCT-R) came to 0.019 nM. The hAMYR3 EC50 [nM] (cAMP formation, 1321N1 cells expressing hAMYR3) in assay [2] amounted to 0.009 nM.

B7: Compound 34 (peptide)
peptide: {C20 diacid-γGlu}-RDGTATKATERLA[Aad]FLQRSSF[Sar]A[NMeI]PSSTEVGSNT[Hyp]-NH2
modifications: lactam 2-7
SMILES: CC[C@H](C)[C@@H](C(=O)N1CCC[C@H]1C(=O)N[C@@H](CO)C(=O)N[C@@H](CO)C(=O)N[C@H](C(=O)N[C@@H](CCC(=O)O)C(=O)N[C@H](C(=O)NCC(=O)N[C@@H](CO)C(=O)N[C@@H](CC(N)=O)C(=O)N[C@H](C(=O)N1C[C@H](O)C[C@H]1C(N)=O)[C@@H](C)O)C(C)C)[C@@H](C)O)N(C)C(=O)[C@H](C)NC(=O)CN(C)C(=O)[C@H](Cc1ccccc1)NC(=O)[C@H](CO)NC(=O)[C@H](CO)NC(=O)[C@H](CCCNC(=N)N)NC(=O)[C@H](CCC(N)=O)NC(=O)[C@H](CC(C)C)NC(=O)[C@H](Cc1ccccc1)NC(=O)[C@H](CCCC(=O)O)NC(=O)[C@H](C)NC(=O)[C@H](CC(C)C)NC(=O)[C@H](CCCNC(=N)N)NC(=O)[C@H](CCC(=O)O)NC(=O)[C@@H](NC(=O)[C@H](C)NC(=O)[C@@H]1CCCCNC(=O)C[C@H](NC(=O)[C@H](CCCNC(=N)N)NC(=O)CC[C@H](NC(=O)CCCCCCCCCCCCCCCCCCC(=O)O)C(=O)O)C(=O)NCC(=O)N[C@@H]([C@@H](C)O)C(=O)N[C@@H](C)C(=O)N[C@@H]([C@@H](C)O)C(=O)N1)[C@@H](C)O
With B7, the hCT-R EC50 [nM] (cAMP formation, 1321N1 cells expressing hCT-R) in assay [1] stood at 0.206 nM. Also, the hAMYR3 EC50 [nM] (cAMP formation, 1321N1 cells expressing hAMYR3) in assay [2] is 0.063 nM.
